Test results taken from paper PMC5100589.

Key:
[1] = molecular target: GST-YY1(F1-4) (human, UniProt P25490 292-414); test: competition
[2] = molecular target: YY1(F1-4) (human, UniProt P25490 292-414); test: MST
[3] = molecular target: YY1(F1-4) R323A (human, UniProt P25490 292-414, R323A); test: EMSA
[4] = molecular target: YY1(F1-4) Q344A (human, UniProt P25490 292-414, Q344A); test: EMSA
[5] = molecular target: YY1(F1-4) H325A (human, UniProt P25490 292-414, H325A); test: EMSA
[6] = molecular target: YY1(mut5) (human, UniProt P25490 292-414, V324A;H325A;V326A;L340A;Q344A); test: MST
YY1(mut5), sequence (P25490 292-414 V324A/H325A/V326A/L340A/Q344A): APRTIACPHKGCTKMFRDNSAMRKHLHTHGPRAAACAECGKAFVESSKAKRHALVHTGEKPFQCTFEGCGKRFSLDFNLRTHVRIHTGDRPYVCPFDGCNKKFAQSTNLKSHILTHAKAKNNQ

YY1(F1-4), sequence (P25490 292-414): as the sequence (P25490 292-414 V324A/H325A/V326A/L340A/Q344A) above, with A33V, A34H, A35V, A49L, A53Q counted along it
GST-YY1(F1-4), sequence (P25490 292-414): as the sequence (P25490 292-414 V324A/H325A/V326A/L340A/Q344A) above, with A33V, A34H, A35V, A49L, A53Q counted along it
YY1(F1-4) R323A, sequence (P25490 292-414 R323A): as the sequence (P25490 292-414 V324A/H325A/V326A/L340A/Q344A) above, with R32A, A33V, A34H, A35V, A49L, A53Q counted along it
YY1(F1-4) H325A, sequence (P25490 292-414 H325A): as the sequence (P25490 292-414 V324A/H325A/V326A/L340A/Q344A) above, with A33V, A35V, A49L, A53Q counted along it
YY1(F1-4) Q344A, sequence (P25490 292-414 Q344A): as the sequence (P25490 292-414 V324A/H325A/V326A/L340A/Q344A) above, with A33V, A34H, A35V, A49L counted along it

Row | Binder | binding result [1] | Kd [2] [µM] | binding result [3] | binding result [4] | binding result [5] | Kd [6] [µM]
1 | AAV P5 dsDNA (dsDNA) DNA 1: AGGGTCTCCATTTTGAAGCG DNA 2: CGCTTCAAAATGGAGACCCT | binds |  |  |  |  | 
2 | AGGCGAUGGUGAGC (ssRNA) [m2 RNA] |  | 3.8 ± 0.6 | binds | binds | binds | 31 ± 9
3 | AAAAAAAAAAAAAA (ssRNA) [poly(A) RNA] |  | 4.2 ± 0.5 |  |  |  | 
